Measurements reported in the domain aggregation screens of Martell et al. (2025).

Experiment: soluble fraction after stress (log2 fold change); higher = more stays soluble; pooled small domains, quantitative proteomics
Details: stress: 75 degC
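Note: 20 min heating vs room temperature control held 20 min.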

HMSKIRTFRVKTVAVDQAYQVLKDYSPIKISTESNAVIIDLDESKTPAEIAGYLEKNGIKVDNIEVIAESE
soluble fraction (log2): 0.962

HMGLAWTVEGRTVLLGRTADRIELYNVGGGLVALARESDRISAPGVGLYVVRVVSDGQSVSQKIWIT
soluble fraction (log2): -2.39

HMAIGDYYINASALNVRSGEGTNYRIIGALPQGQKVQVISENSGWSKINYNGQTGYIGTRYLSKTPV
soluble fraction (log2): -0.264

HMNSNTIIFSQFLSEVDNGRVTQVQIQGNNIKGTLSNGKDFITYAPNDPNLIEKLTSKGVSISASPID
soluble fraction (log2): 0.0526

HMENIIKISASYEGLRVDQFLSNYLKISRSKVQKYISEEKIFLNNVPTKTNRKVKLDDIISYNLNF
soluble fraction (log2): -3.01

HMQVLSESDVEDIKAISGGDKAYDNLMEWAGSKLSKQDAKDYDDVLATGNKTAITFAVKALMAQYENAN
soluble fraction (log2): -0.198

HMTSPRRLYALIVEHVGKDGVMHRSDVENVLAKVESEMDVDDLLDQLEINGTIIRRQDGTWQLL
soluble fraction (log2): -0.716

HMTNNDIIRRVRYLFNFSDKQVIELFKLANETVSIEHVSGWLKKEEDPTLIEISDRDLAVFLNGLII
soluble fraction (log2): 0.557

HMVYVPTKAEVSQQFQDASKARFDERYAIVELADGRRTMAPLAFLTKADHAWLKQLASTSPLPKGK
soluble fraction (log2): -0.16

HMTYSEEEIERDLYVRGTLYQIGDLVENKIDGTSGEIVRRGPNYVQYSDGENFYKAFLHSIQEV
soluble fraction (log2): 0.0161

HMPGLPLWAFSTRGSAIHTGASFRDGDGLLFGPESRGLPDWLLEEVGQDRVLRLPMRPGSRSLNLSNAV
soluble fraction (log2): -0.577

HMIEKGSDALEKELRKNNLSINEFLTNKNIDIILDELKLKDIDDLYVNIALGKYTPNQIIKIVNK
soluble fraction (log2): -0.0502

HMEKVLPFEFERKFKTNHTAWDFFSNQAPPSYRKTVIHWILSAKQEITRISRLEKLIAASEQQKRI
soluble fraction (log2): -0.518

HMSGSFDVTLDYLNSLRNLYPAIDVEQEFRKMYAWLDSNPKNRKTERGIKRFITGWLGRAQDKAP
soluble fraction (log2): -1.31

HMIELTTDYKKRVVEALVSARENYSGSDSDFARKWSIDKTVYSRLKKGYQEGLLSVGKYIELGMELNVSSR
soluble fraction (log2): -1.87

HMQSNDTAEIEAVVKEIMAANERVVNDYRSGNTKVVSFFVGQVMKATKGKANPKVVNEVLAKLLK
soluble fraction (log2): -0.823

HMKKKSYIVSFATDEDAQRFAREGFEVISLSGRQITVSLKGEMMPLVKALGSYQVVGLETVA
soluble fraction (log2): -1.77

HMKGRPTTAIITDERTNLRSGPGATNKTIAQAGAGEKLAIIDEKDGWYQVSRAGINGWVAGWVIDVAW
soluble fraction (log2): -1.83

HMESRRVTLLLPYDKAGIADTLRREAAVLSLEYGEDGVTVEAVVKPELWGLVREYVQNDNPK
soluble fraction (log2): -0.135

HMAAAQILRAAVLRVPAEETMRFVTETPELRRYLGASLGPTAAIVRPGQEQNLAAALQSHGILVEFDE
soluble fraction (log2): -0.0423

HMTISPYTKDDFLKGTKPFEDVYAHKADPFVHDRALEQMTIWAKSVGVNGFKKLYKAYIDSLRIKNKEI
soluble fraction (log2): -0.315

HMSGITDIITDGKATSRPVVVTDGGHIRVLSPYTSFAIYTLGGMSLPTESRLEPGIYIVVVDSNAVKVAV
soluble fraction (log2): -1.59

HMFTLDIGTIIRNRRLELNLTLEEIGNAVGVSKSTVQKWENGFISNMKRDKISALAKVLNINPVTLITGEY
soluble fraction (log2): -3.44

HMDAKNNPQVMAQIRAILTAKGLSEDEVKTRLKTKNIDVDKMTDQEIIAQRPAIEAIINEMEQEKKQKMG
soluble fraction (log2): 0.0493

HMSDIYSLFERELGRTLSSYEYEIIGKWIEKGVSEDTIKRALKEAILNGVTNFKYIDKIIYDWSKN
soluble fraction (log2): -0.622

HMSNLKKRRLEKNLTLDDVGKLVGVSAATISRWESGDIENMRSDKIVKLANALEISPAVILGW
soluble fraction (log2): -0.0179

HMTQLPEVPVERGMVLEEVQSGWVGAVTRVEKSGGMHVVALEDRRGKSRSFRLGFGFLLEGQPIRLMPPAP
soluble fraction (log2): -1.89

HMKSSTEIIYSDFLREVSNGQISEVTIQGDFVRGLFLSGSSFQTYAPKDSNLINILRDKKVRIKVHPP
soluble fraction (log2): -1.07

HMRIPANIAEDIKKLQKKEHHLHHHLGRDPFDDELAKELEWDTEQVSEIRQMIKNPELLEELLEAEREEE
soluble fraction (log2): 0.0316

HMVTDTGEIEAIIDRVISENPDSVSDFKNGKERALKFLMGQAMKESKGKANPQIVNELLLKKL
soluble fraction (log2): -0.00511

HMREGRERRLSQLLSYLRTHHILTRSEYVKLTGLSPTAASSELKTFVTAGHIVRKGIASHSTYRLPH
soluble fraction (log2): -1.91

HMEEDPILVAQRFLNIFRQLHIFDQQRREEFNSMILALPPEIRGTFGVLPGGSVLQEYVDELEISKGMA
soluble fraction (log2): -1.11

HMGRGSEDEQMRGLAVILAEQKQIMQTLGVENEVVKPEQYINTLKRMAELNGFKDTDQFFSIPQ
soluble fraction (log2): 0.26

HMHLTRYQYKVETEQEAVGLKELSSVHDLQIKENEATFQADSDAIDEILKTLLLYGVKKLEATPPTLED
soluble fraction (log2): -0.211

HMGNPSGLPLPRFASTRSEPINVRVGPGQKYDIAWTYLKSGIPVEIIQEFDTWRKIRDFDGAEGWIHQNLL
soluble fraction (log2): -1.22

HMFDTVKIGKRIAELRKKRDMTQFELADRLGISYQAVSNWERGNSMPDIAKLPELAEIFGVTVDEILG
soluble fraction (log2): 0.283

HMAPSVNEVAWAQKIIDAHAEAAAAGKGLVVVDGKLIENLHVEEAKQLLSLSDAIAKNDASNG
soluble fraction (log2): 0.0645

HMADFYEVLGVERNASSDQIKRAYRKLARELHPDVNLDPVAQNRFKEVTEAYEVLSDPNKRSNFDRG
soluble fraction (log2): 0.0366

HMSQDTLIGRVGVIVIGQARTGSPAQVRVKDGFGQTHYVMAEPDSEGVLKQGEAVLLVSLEGNTFKAILNP
soluble fraction (log2): -2.41

HMGTDGLKDIVLEILKEHPNQLAELIDGKQKVLGFLVGQVMKKTNGAANPKEVNEIIQGEIKK
soluble fraction (log2): 0.179

HMEYDYKVIDFFKDYYSYLNYQEIEPNILDKQLTTLTEEESAKIAGIMKLDYEDFTRGIEIVTGS
soluble fraction (log2): -0.536

HMFFFILNKGAKSGGEITHAVLNGSIVSKPAGWDAFHGLVLAKEKLSSEEIQRQMKELGVEMEIVPL
soluble fraction (log2): -2.4

HMHFDQILAHAMDERGMNAVQLASLTGLSSGAISRYLAGDRQPTVYSIQQIAKALGVSADYLVG
soluble fraction (log2): -1.19

HMRRELDSEHKRQEILFAAKRLLLAEGYDATSMSRLAKEAGVAPNTLYWYFKDKDELLIAILDELVAE
soluble fraction (log2): -2.74

HMYMKGKVKWFDSKKGYGFITSENGKEIFVHFSGIAAKGFKSLNEGQTVEFEVANGAKGEQAVNVTV
soluble fraction (log2): -1.23

HMEVKRANRKERFLEALPYQFSRQDYLNIADKNKIPHKTAEGYITKFVDAGLIHREAHNNYTNPTKA
soluble fraction (log2): -0.0913

HMNELIGVEQLQDLREAIADHGFAEQRVLNWLYQATKGQVSRLEQLPLPMLTTLHKKLGQWADAEAAASSA
soluble fraction (log2): 0.3

HMRGLLSQREHDVLDLVARGFSYGEIARLRSISVSTVQTHIKNLYRKLAVSSRTEAVYEAKQMGI
soluble fraction (log2): -1.63

HMEYDEVVVVKQIIPKGKNTMVAHLKHLKEHGETGFLKQAVGYLKLHASEIPFSVDAVISEVH
soluble fraction (log2): -0.253

HMRDFTQPQTASIGPRMREALARGTMTVEELREQFRTQEFPHESVRTAFLEELERVAAELGLA
soluble fraction (log2): 0.349

HMDTNELIDRYVNEVGQHLPRKTRADIEMELRSLLLDTLEEQSGGEPTPKMAAEVLREFGHPEEIAAQYH
soluble fraction (log2): -0.386

HMKVELSENEKIIYDLLSNQEVLLSEIKDKAELSNKAWDKSTKSLRKLGLVIVEKKDDNIYISKS
soluble fraction (log2): -0.101

HMLDKKKHLEQGRKIIEDQLAKYKIQPSFDTLKKLSAYYGLNNKEQLYAQVGMGFLELENLDEILQ
soluble fraction (log2): 0.307

HMNNPISMQKLRQVIRLYGQGKGTKSINSMLGVSRNTIKKYLQVYHSSGINYESFLAMSDKELSAVFLV
soluble fraction (log2): -0.509

HMTETNSVTINERLTLYRRSRSGRWQARVKLNTGEWHRFSTGTADFEKAKESAHRELHNVGFRAENNLPQ
soluble fraction (log2): -1.16

HMLDLPVRTINGRQYYYYEVRNRETVYGLSKRLGVTREEIVRYNPSMADGLKRGAILYFPVDEFSDRI
soluble fraction (log2): -2.84

HMGLQRLTVSPEDAGVRIDKYLAEQLPDITRSYLQKLLKDGSVQMNGKPVKASTKTAVGAVIALTIPEP
soluble fraction (log2): -0.26

HMTIRIPEEEYLTRAKRAAQMTAERGLDALFLFGSEGDFQNVRYFTSVTPIWERLGVVITASGKAAMLTGP
soluble fraction (log2): -0.145

HMGHTVHAVPEAADRQRLDVFVGNLHPTISRAYIQKLSKEDQILVNGKPEKAGFKLRTGHSVSVPDMSE
soluble fraction (log2): 0.00554

HMNHTIEENDRVLILDPRGKKYLITVTNRVFHTNLGKLDISELIGKNYGDKIKSHMGKNFSILKPNLIDYI
soluble fraction (log2): -0.0314

HMDRSIGDIIAELRDLSAEQVERVLAHQRETGVRFGEAAVALGYASKEDVLFALSQQFHYPYAPEE
soluble fraction (log2): 0.0114

HMSYKFDSLAIILNKLDGKETVNVSSLSDELEVSARTVHRYIGTLQVAGFPIEYDKTKNSYIFSEGYTL
soluble fraction (log2): -0.794

HMAAQLAHVPAVTGRPLAEAQRILADNRLNAQVTQQPVAEPKLDGVVIAQKITEGTRTMRGATVPLIVGKY
soluble fraction (log2): -0.00421

HMGAVPKNYFPAVEKGLQDSVQKGLLAGYPVVGVKAILYDGSYHPVDSSEMAFKTATIQAFKKGFMEA
soluble fraction (log2): 0.187

HMDGVNRDKIEYRLDDLYYLKGSDAPYTGKVFEEWSGQQRVETNYIDGKLDGLSESWHENGQKASEVNY
soluble fraction (log2): 0.486

HMNSNQESFENWLSANSWYNKDRAMRVFADSLGQELRNSGVSFEKALTQISAEVRKEFSHKFQ
soluble fraction (log2): -0.491

HMENSYSVEDLALKAAISVDTIRYYQGLGLISPPQKNGRRAIYGNDHISRLEEIKKLAFEGFSLRQISLL
soluble fraction (log2): 0.111

HMGQVSDETGLARVVDALLAAHPDEVAKYRAGKTSLLGWFMGQVMKETRGQANPDLARALVLERLE
soluble fraction (log2): -0.342

HMDLDSGVAVLRTLMSQHNLQTDDFQNEIGGKSMVSMILNGTRKLSKNHIQALSGRFNLSPALFF
soluble fraction (log2): -0.819

HMIMTTKVSGIMFDKFNPSAILNINGMDYLVRSGDIINGYKILSIGQETVTVQYGANVYKASVG
soluble fraction (log2): -4.48

HMELRIREILESKDIKVSSLAETVGITRANMSNIVNGKSTPSLETLEKIANALGVDITELFA
soluble fraction (log2): -0.432

HMVDPELFIWVESSKEPVYHLAYKIELFVHSTDPQDDVPVHRWQVFVDAHNGNILDKFDEVR
soluble fraction (log2): -0.292

HMSKKTQKDEVVDLFLKTGNEPLHYKEISKKTGIIVHNVRRITGQNVVGKTDNPVFKRVSPGVYKLID
soluble fraction (log2): -0.72

HMKRMSKKQLSAVIEKYFSSQPGVTLTLKDIFRNLHLDTHPLKMIALDILEEMSWDDVIMKVSDTSYALNT
soluble fraction (log2): 0.194

HMVVVMEKNASSAEIEQVQERLRQAGFKIHLSQGVERTIIGAIGDRSQVDLGFLEALPGVEKVVPIMK
soluble fraction (log2): 0.171

HMSTGYEMVREVANQGSFSKAANSLGVSGPAVSKQVKSLEERLGLVLFHRTTRAVSLTQAGRQLVDVLN
soluble fraction (log2): 0.114

HMATPTMEDYIEVIYSLVKTKGYARSADIAEKLEVYPSTVTKMLKKLDAEGYIVYEKYRGIALTDIGKKMG
soluble fraction (log2): -2.17
